In article PMC5897525 (Nature Communications, 2018):

Target: T1, natural Fel d 1 (Felis catus, UniProt P30438;P30440)
T1 construct: Fel d 1 Chain 1, cat, of the natural Fel d 1 heterodimer; Fel d 1 Chain 2, cat, of the natural Fel d 1 heterodimer; also called nFel d 1; source: bought: Indoor Biotech, Catalog #LTN-FD-1
Assay: SPR; Biacore T200; REGN1909 (94-163 RU) captured on a goat anti-human Fcγ coupled surface; nFel d 1 or rFel d 1.mmh injected in 2-fold dilutions; 10 mM HEPES, 150 mM NaCl, 3 mM MgCl2, 3 mM CaCl2, 0.05% P20, pH 7.4; 1:1 binding model with mass transport limitation
Settings: both partners purified

B1: REGN1909 (antibody, V domains shown)
VH: EVQLVESGGGLVQPGGSLRLSCAASGFTFSSYAMSWVRQAPGKGLEWVSAISGRGYNADYADSVKGRFTISRDNSKNTLYLQMNSLRAEDTAVYYCAKLEYFDYWGQGTLVTVSS
VL: DIQMTQSPSTLSASVGDRVTITCRASQSISSWLAWYQQKPGKAPKLLIYKASSLESGVPSRFSGSGSGTDFTLTISSLRPEDFATYYCQQYNSYPLTFGGGTKVEIK
binding result: binds
